Experimental data: patent US8440629B2, “Cyclic receptor-associated protein (RAP) peptides” (Raptor Pharmaceuticals Inc., priority 2007, dated 2013)
Read-outs that look alike come from different tables or passages of the source. Positions of bridges follow the written chain, without caps; N, C: chain ends. No end group written: not given here.

Columns and labels:
rhLRP1 cluster II = target: T1, rhLRP1 cluster II (Homo sapiens, UniProt Q07954); assay: Solid phase binding assay of RAP peptides
T1 construct: rhLRP1 cluster II (aa 786-1165, C-terminal Fc, 1 μg); purchased R&D Systems; host or cells: NS0
T1 sequence (Q07954 786-1165): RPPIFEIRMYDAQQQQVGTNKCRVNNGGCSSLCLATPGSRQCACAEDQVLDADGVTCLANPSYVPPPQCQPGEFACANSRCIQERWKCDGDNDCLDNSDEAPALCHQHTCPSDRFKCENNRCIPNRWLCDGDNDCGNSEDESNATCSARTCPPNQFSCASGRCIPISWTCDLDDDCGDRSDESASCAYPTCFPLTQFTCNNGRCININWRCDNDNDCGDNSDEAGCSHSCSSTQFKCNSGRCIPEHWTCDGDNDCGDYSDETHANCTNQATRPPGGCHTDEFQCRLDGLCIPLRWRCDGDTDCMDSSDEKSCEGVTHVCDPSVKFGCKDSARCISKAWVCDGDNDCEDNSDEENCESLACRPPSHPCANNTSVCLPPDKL
Procedure: Solid phase binding assays were carried out as follows. Recombinant murine VLDLR ectodomain (aa 1-798, C-terminal hexahistidine, 1 μg) or rhLRP1 cluster II (aa 786-1165, C-terminal Fc, 1 μg) were bound to Nunc Maxisorp™ 96-well plates in TBS pH 8 supplemented with 5 mM CaCl2 (TBSC) overnight at 4° C. Wells were washed with TBSC and then blocked with TBSC containing 2% BSA. Peptides were then incubated with the immobilized receptor at a range of concentrations for 2 hours in the above blocking buffer supplemented with 0.05% Tween-20 at room temperature. Identical binding reactions were done in the presence of 50 mM EDTA to provide a measure of non-specific binding. Control wells contained no added peptide. Additional controls established absence of cross-reactivity between antibodies and receptors. Wells were washed with TBSTC and bound peptides detected with streptavidin-HRP (Pierce) or polyclonal anti-RAP (1:1,000, Raptor Pharmaceutical). […] Absorption at 450 nm was measured with a microplate spectrophotometer (Molecular Devices). […]
The binding affinity of the peptides for LRP1 and VLDLR, another receptor in the LDLR family, was measured as follows. […] Bound peptides were detected with streptavidin-HRP after extensive washing. Binding values measured in the presence of EDTA were subtracted from values measured in the absence of EDTA in order to determine calcium-dependent binding levels. […]

LDLR, LRP5 and LRP6 = settings: cited from earlier work
[1] = target: T2, LRP1 cluster II (LRP1-C2) (Homo sapiens, UniProt Q07954); assay: Inhibition of RAP d3 binding to LRP1-C2 (ELISA)
T2 construct: recombinant human LRP1 cluster II (amino acids 786-1165, with C-terminal Fc tag); purchased R&D Systems; host or cells: NS0
T2 sequence (Q07954 786-1165): T1 sequence (Q07954 786-1165)
Procedure: Binding inhibition assays were also carried out to determine the ability of the mRAPc peptide to interfere with RAP d3 binding to LRP1 (cluster II), as well as binding of LRP ligands α-2-macroglobulin and uPA/PAI-1. To allow complexation with streptavidin or an anti-biotin antibody, the mRAPc peptide was fitted with an N-terminal biotin residue separated from the RAP sequence by a pentapeptide linker (GGSGG). Solid phase binding assays were performed using recombinant human LRP1 cluster II (amino acids 786-1165, with C-terminal Fc tag, 1 μg, R&D Systems, Minneapolis, Minn.) to coat Nunc MAXISORP™ 96-well plates in TBS pH 8 supplemented with 5 mM CaCl2 (TBSC) overnight at 4° C. Data was generated by ELISA assay. Wells were washed with TBSC and blocked with TBSC containing 2% BSA. In assays involving complexes between streptavidin and biotinylated peptide, LRP1 ligands (RAP d3 (2 nM), trypsin-activated α-2-macroglobulin (1 nM) or uPA/PAI-1 (10 nM) were incubated with the immobilized receptor, in the presence or absence of inhibitors, for 2 hours in the above blocking buffer supplemented with 0.05% Tween-20 at room temperature. In assays involving complexes of the anti-biotin antibody and biotinylated peptide, all inhibitor solutions were pre-incubated with immobilized LRP1-C2 prior to washing and subsequent incubation with ligand. Since the ligand binding competence of CR pairs requires calcium, identical binding reactions were done in the presence of 50 mM EDTA to provide a measure of non-specific binding. Control wells contained no added inhibitor. Wells were washed with TBS supplemented with 5 mM CaCl2 and 0.05% Tween-20. Bound ligand was detected with either anti-S-peptide-HRP conjugate (Abcam, Cambridge, Mass.), anti-α-2-macroglobulin-HRP or anti-PAI-1-HRP. Excess HRP conjugate was removed and wells washed. Color was developed using TMB reagents (BioRad, Hercules, Calif.). Absorption at 450 nm was measured with a microplate spectrophotometer (Molecular Devices, Palo Alto, Calif.).
The ability of mRAPc, in the presence and absence of either streptavidin or anti-biotin antibody, to inhibit binding of recombinant RAP d3 to LRP1-C2 was measured. […] The multifold enhancement of inhibition seen in the presence of streptavidin is consistent with an improvement in avidity upon multimerization of the minimized RAP domain.
Given the relatively weak monovalent affinity of the anti-biotin antibody for biotin (low nanomolar KD), it was hypothesized that preassembly of a multivalent complex consisting of two, suitably proximate, receptor-bound peptides and a single antibody would stabilize the peptide-antibody complex. Therefore, the antibody and peptide, in a molar ratio of one to three, was incubated with the immobilized receptor prior to washing and subsequent addition of the RAP d3 ligand. The same procedure was performed for the controls; peptide alone, antibody alone and RAP. […] Next the effect of the multimerized mRAPc was determined. The multimerized mRAPc was compared to the mRAPc monomer and full-length RAP in the inhibition of binding of two other ligands to LRP1-C2, trypsin-activated α-2-macroglobulin and the uPA/PAI-1 complex, at a single ligand concentration. […] In both cases, the complex of streptavidin and mRAPc inhibited binding with an EC50 approximately midway between RAP and the mRAPc monomer.

[2] = target: LRP1, LRP1B, LRP2, SorLA, apoER2 and VLDLR; settings: read-out: dissociation constants; cited from earlier work

CEAKIEKHNHYQKQLEIAHEKLRHAESVGDGERVSRSREKHALLEGRTKELGYTVKKHGC (disulfide 1-60) [mRAP-14c]
Kd (rhLRP1 cluster II): ~21000 pM

RAP: receptor-associated protein, mature human RAP (SEQ ID NO: 95)
affinity lower than for LRP1 (LDLR, LRP5 and LRP6): at least 10 fold
EC50 better than peptide assembled on streptavidin ([1]; FIG. 14A): about 8 fold
EC50 improvement over monomeric mRAPc peptide ([1]; FIG. 14A): 64 fold
EC50 ([1]; inhibitor pre-incubated with immobilized receptor, washed, then ligand, FIG. 14B, read-out: EC50 of inhibition of RAP d3 binding): 300 pM
EC50 ([1]; ligand and inhibitor incubated together, FIG. 14A, read-out: degree of inhibition (EC50) of RAP d3 binding): 500 pM
Kd [2]: < 5000 pM

streptavidin: streptavidin alone, control
inhibitory effect (in words) ([1]; ligand and inhibitor incubated together): no inhibitory effect
